In series [1] the target is T1, Substance P (SP) (UniProt P20366).
T1 sequence: RPKPQQFFGLM
To be noted: equilibrium dialysis rough estimate, 20 uM RNA, fraction bound 0.017.

For series [2], the target named is T2, Substance P (SP) (UniProt P20366).
T2 chain: RPKPQQFFGLM
Kind of series: equilibrium dialysis, five-point curve; earlier estimate 14 uM; SP binding buffer, room temp. Conditions: protein: synthetic; tags: free synthetic peptide, C-terminal amide, Sigma (3H-SP from NEN as tracer). As to the method: (§1) Equilibrium dialysis. Equilibrium dialysis experiments were performed with a Spectra/Por® (Spectrum; Houston, Tex.) equilibrium dialyzer, Spectra/Por® (Spectrum; Houston, Tex.) microcell dialysis chambers (200-μl chamber volumes), and 12000–14000 MWCO dialysis membranes (Spectrum; Houston, Tex.). These membranes allow passage of SP but not 107-nt RNAs. Sample volumes were 200 μl on each side of the membrane (i.e., 200 μl per chamber). All experiments were at room temperature in 1X SP binding buffer. RNAs (unlabeled) were denatured prior to re-equilibration in binding buffer as described above for Experiment B. For binding curves (FIG. 4), RNA concentrations between 50 nM and 20 μM were utilized. […] For binding competition experiments (FIGS. 6 and 7), equal concentrations of the competing peptide were applied to each side of the membrane at the start of dialysis. The dialysis cells were rotated at 10 rpm to shorten the time required to reach equilibrium. […] Following equilibration, samples were withdrawn from the dialysis chambers, added to scintillation fluid, and counted.

Series [3] deals with T2, Substance P (SP). In words: single-point equilibrium dialysis; stated for all class 2. Conditions: protein: synthetic; tags: free synthetic peptide, C-terminal amide, Sigma (3H-SP from NEN as tracer). The protocol: (§2) Binding reactions consisted of 20 nM ^3H-SP (P_o) and either 0.2 µM RNA (a) or 1.0 µM RNA (b). ND=not determined.
as §1

Series [4] has as its target T2, Substance P (SP). Kind of series: single-point equilibrium dialysis. Conditions: protein: synthetic; tags: free synthetic peptide, C-terminal amide, Sigma (3H-SP from NEN as tracer). The protocol:
as §2, §1
On the technique in general: In equilibrium dialysis only unbound substance equilibrates across the membrane.

The target of series [5] is T2, Substance P (SP). Kind of series: equilibrium dialysis, five-point curve; single-point screen gave 170 nM; 10 mM HEPES pH 7.0, 150 mM NaCl, 5 mM KCl, 5 mM CaCl2, room temp. To be noted: protein: synthetic; tags: free synthetic peptide, C-terminal amide, Sigma (3H-SP from NEN as tracer). The protocol:
as §1

Series [6] deals with T3, Reverse-orientation substance P (rSP).
T3 chain: CMLGFFQQPKPR
Kind of series: competition; poor competitor of 3H-SP up to 100 uM; 1.6 uM RNA, 1.6 uM SP. To be noted: protein: synthetic; tags: synthetic peptide. As to the method:
as §1, with “These” for “Equilibrium dialysis. Equilibrium dialysis experiments were performed with a Spectra/Por® (Spectrum; Houston, Tex.) equilibrium dialyzer, Spectra/Por® (Spectrum; Houston, Tex.) microcell dialysis chambers (200-μl chamber volumes), and 12000–14000 MWCO dialysis membranes (Spectrum; Houston, Tex.). These”

The target in series [7] is T4, Substance P fragment 2-11.
T4 chain: PKPQQFFGLM
Kind of series: competition; unable to compete at 32 uM (20-fold excess over SP). To be noted: protein: synthetic; tags: synthetic peptide, Sigma. As to the method:
as §1

Series [8] addresses T2, Substance P (SP). In words: single-point equilibrium dialysis; exception to the >2 uM statement, exact value only in figure. Conditions: protein: synthetic; tags: free synthetic peptide, C-terminal amide, Sigma (3H-SP from NEN as tracer). As to the method: as §2, §1

Where two headings read alike, the source gives them in different places. Some results are limits rather than exact numbers.

As to “GGGAGCUCAGAAUAAACGCUCAANNNNNNNNNNNNNNNNNNNNNNNNNNNNNNNNNNNNNNNNNNNNNNNNNNNNNNNNNNNNUUCGACAUGAGGCCCGGAUCCGGC [Unselected random 60N RNA pool]”, the Kd with Substance P (SP) [1] was 1200 µM.

B1: Ligand A13 (ssRNA)
RNA: GGGAGCUCAGAAUAAACGCUCAAGGGCAACGCGGGCACCCCGACAGGUGCAAAAACGCACCGACGCCCGGCCGAAGAAGGGGAUUCGACAUGAGGCCCGGAUCCGGC
In the case of B1, the Kd with Substance P (SP) [2] was 5.8 µM.

B2: Experiment B class 2 ligand (SEQ 54) (ssRNA)
RNA: GGGAGCUCAGAAUAAACGCUCAAAAACAGGACACCAAGAUUAUUGGACGAGUUUACUAGGGCGAUUAAUGGGCUCGCGAUGAUUCGACAUGAGGCCCGGAUCCGGC
Consider B2, for which the Kd with Substance P (SP) [3] is more than 2 µM.

B3: Experiment B class 2 ligand (SEQ 51) (ssRNA)
RNA: GGGAGCUCAGAAUAAACGCUCAAGAACAGGACACCUGGUUCUCAGGACGAGUUUACUAGGGCGGCAAAAAGGGCUCUCGUGGGUUCGACAUGAGGCCCGGAUCCGGC
Take B3: the Kd with Substance P (SP) [3] was more than 2 µM.

B4: Ligand B23 (class 3) (ssRNA)
RNA: GGGAGCUCAGAAUAAACGCUCAAGCUCAAGGCAGAAACAGGACACACCAAGACGAGUUAACCAGCCCAGCUUGACCAUACAUUCGACAUGAGGCCCGGAUCCGGC
In the series with Substance P (SP) [4], B4 registered a dissociation constant Kd of more than 2 µM.

B5: Experiment B class 2 ligand (SEQ 49) (ssRNA)
RNA: GGGAGCUCAGAAUAAACGCUCAAUAACAGGACACCAUGAUUAAUGGACGAGUUCACUAGGGCGGUUAAAAGAGCUCUCGAGGAUUCGACAUGAGGCCCGGAUCCGGC
For the molecule B5, the Kd in the series with Substance P (SP) [3] is more than 2 µM.

B6: Experiment B class 2 ligand (SEQ 50) (ssRNA)
RNA: GGGAGCUCAGAAUAAACGCUCAAGAACAGGACACCAAGAUAAUUGGACGAGUUUACUAGGGCGGCUAUGCUGGCUCUCGAGGAUUCGACAUGAGGCCCGGAUCCGGC
On to B6, for which the Kd with Substance P (SP) [3] was more than 2 µM.

B7: Experiment B class 2 ligand (SEQ 55) (ssRNA)
RNA: GGGAGCUCAGAAUAAACGCUCAAAACAGGACACCUUGAAUAAAGGACGAGUUUACUGUGCGUUUAGUAGAGAACCCGGGAUUCGACAUGAGGCCCGGAUCCGGC
B7 gave a Kd with Substance P (SP) [3] of more than 2 µM.

B8: Experiment B class 2 ligand (SEQ 48) (ssRNA)
RNA: GGGAGCUCAGAAUAAACGCUCAAAAAACAGGACACCAUGAUAAAUGGACGAGUUCACUGGAGCGUCUAAAAGGGCACCCUUGGAUUCGACAUGAGGCCCGGAUCCGGC
In the series with Substance P (SP) [3], B8 yielded a Kd of more than 2 µM.

B9: Ligand B28 (ssRNA)
RNA: GGGAGCUCAGAAUAAACGCUCAACUUCCAAGGCAGUGGAAACCCUAAGGUCAAUAAUGACCAAUGACGCCGCUCCGGUUCAACCUUCGACAUGAGGCCCGGAUCCGGC
In the series with Substance P (SP) [5], B9 registered a Kd of 0.19 µM. In addition, the binding result in series [6] and in series [7] was “no binding” each time.

B10: Experiment B class 2 ligand (SEQ 52) (ssRNA)
RNA: GGGAGCUCAGAAUAAACGCUCAAAAACAGGACACCAAUUUUAUUGGACGAGUUUACUAGGGCGGUAUUAUGGGCUCGCGAGGAUUCGACAUGAGGCCCGGAUCCGGC
As to B10, the Kd with Substance P (SP) [3] was more than 2 µM.

B11: Ligand B32 (class 3) (ssRNA)
RNA: GGGAGCUCAGAAUAAACGCUCAAAAAGGCACUGACCACCCUCAGGAAGAAUAACCGCGGUCACCCGCAUCCGAGUCUAUCAAUUUCGACAUGAGGCCCGGAUCCGGC
On to B11, for which, in the series with Substance P (SP) [8], the Kd was less than 2 µM.

B12: Ligand B22 (class 3) (ssRNA)
RNA: GGGAGCUCAGAAUAAACGCUCAAAAGGUAAGAAACAGGACACGCACUUAAACAGACGAGUUAACCAUACCUAGAUCGCGGAAUUCGACAUGAGGCCCGGAUCCGGC
For the molecule B12, the Kd with Substance P (SP) [4] was more than 2 µM.

B13: Experiment B class 2 ligand (SEQ 53) (ssRNA)
RNA: GGGAGCUCAGAAUAAACGCUCAAAAACAGGACACCAUGAAAAUGGACGAGUUCACUAGAGCGUUGAGCUGUGCGCCCGUGGAUUCGACAUGAGGCCCGGAUCCGGC
Take B13: the Kd with Substance P (SP) [3] is more than 2 µM.

One may read the Kd as the equilibrium constant for the complex coming apart.

These data come from patent publication US5637682, “High-affinity oligonucleotide ligands to the tachykinin substance P” (NeXstar Pharmaceuticals, Inc.).
